The assay has as its target cellugyrin Inner loop 1A peptide. The assay can be described thus: SPR. (In general: Surface plasmon resonance follows binding to a sensor surface in real time, without labels.)

“full length SARS-CoV-2 spike protein (from UniProt P0DTC2) (natural protein)” gave a maximum RU of 220 RU.

For the origin of these results see article PMC11063343.
